# Experimental data: the nanobody polyreactivity screen of Harvey et al. (2022)
# Assay: yeast display, Sf9 membrane polyspecificity reagent, FACS + sequencing; frameworks hold sequencing errors
# How it was run: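 Galactose induction of a Saccharomyces cerevisiae BJ5465 synthetic nanobody display library ran 36–48 hours. The cells were then stained for 1 hour at 4 °C with 10% biotinylated, detergent-solubilized Sf9 membrane reagent, pulled down on streptavidin microbeads and FACS-sorted into low and high (top ~1%) gates on expression and reagent-binding fluorescence. Labels for polyreactivity follow the gate of origin.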
row,Sequence,polyreactivity (PSR sort gate)
1,QVQLVESGGGLVQAGGSLRLSCAASGSTFVNNAMGWYRQAPGKERELVAAIRNTGGRTYYADSVKGRFTISRDNAKNTVYLQMNSLKPEDTAVYYCAALSRVRTLWRMDYWGQGSQVTVSS,high polyreactivity
2,QVQLVESGGGLVQAGGSLRLSCAASGSTFVNNAMGWYRQAPGKERELVAAIRSSDGRTYYADSVKGRFTISRDNAKNTVYLLMNSLKPEDTAGYYCNAGYWRFIDSYDYWGQGTQVTVSS,high polyreactivity
3,QVQLVESGGGLVQAGGSLRLSCAASGSTFVNNAMGWYRQAPGKERELVAAIRSSGGSTYYADSVKGRFTISRDNAKNTVSLQMNSLKPEDTAVYYCNADRWKYELDYWGQGTQVTVSS,high polyreactivity
4,QVQLVESGGGLVQAGGSLRLSCAASGSTFVNNVMGWYRQAPGKERELVAAISGRGGNTYYADSVKGRFTISRDNAKNTVYLQMNSLKPEDTAVYYCAPYSWGWSLWTYDYWGQGTQVTVSS,high polyreactivity
5,QVQLVESGGGLVQAGGSLRLSCAASGSTFVNYAMGWYRQAPGKERELVAAITANGGRTYYADSVKGRFTISRDNAKNTVYLQMNSLKPEDTAVYYCNTESNLYRRRRNYWGQGTQVTVSS,low polyreactivity
6,QVQLVESGGGLVQAGGSLRLSCAASGSTFVNYVMGWYRQAPGKERELVAAISRRGTSTRYADSVKGRFTISRDNAKNTVYFQMNSLKPEDTAVYFCAATRYVGVTGYGYWGLGTQVTVSS,high polyreactivity
7,QVQLVESGGGLVQAGGSLRLSCAASGSTFVPNDMGWYRQAPGKERELVAGISSVGGTDADSVKGRFTISRDNAKNTVYLQMNSLKPEDTAVYYCNALHAYYVLTPYDYWGQGTQVTVSS,low polyreactivity
8,QVQLVESGGGLVQAGGSLRLSCAASGSTFVPYAMGWNRQAPGKERELVASISWRGGSTSYADSVKGRFTISRDNAKNTVYLQMNSLKPEDNAVYYCAARPRYRYKQDYYYWGQGSQVTVSS,high polyreactivity
9,QVQLVESGGGLVQAGGSLRLSCAASGSTFVPYAMGWYRQAPGKERELVAAISSAGSTNYADSVKGRFTISRDNAKNTVYLQMNSLKPEDTAVYYCARDIQDTYVFDYWGQGTQVTVSS,low polyreactivity
10,QVQLVESGGGLVQAGGSLRLSCAASGSTFVPYAMGWYRQAPGKERELVAAITWSGGDSTYYADSVKGRFTISRDNAKNTVYLQMNSLKPEDTAVYYCAASYLGRKYDYWGQGTQVTVSS,high polyreactivity
11,QVQLVESGGGLVQAGGSLRLSCAASGSTFVPYAMGWYRQAPGKERELVATIRWRGDRTYYADSVKGRFTSSRDNAKKTVYLQMNSLKPEDTAVYYCNTAGWSFYSGRYDYWGQGTQVTVSS,high polyreactivity
12,QVQLVESGGGLVQAGGSLRLSCAASGSTFVPYTMGWYRQAPGKERELVAVISSSGGNTYYADSVKGRFTISRDNAKNTVYLQMNSLKPEDTAVYYCNKDYWYPNYRRYEYWGQGTQVTVSS,low polyreactivity
13,QVQLVESGGGLVQAGGSLRLSCAASGSTFVQNAMGWYRQAPGNERELVAAISRTGGSTYYADSVKGRFTISRDNAKNTVYLQMNSLKPEDTAVYYCAKRPPNYSWPKIIEFGSWGLGTQVTVSS,high polyreactivity
14,QVQLVESGGGLVQAGGSLRLSCAASGSTFVRNAMGWYRQAPGKERELVAAITSSGGSTYYADSVKGRFTISRDNAKYSVYLQMNSLKPEDTAVYYCAKRRYYRYDYWGQGTQVTVSS,low polyreactivity
15,QVQLVESGGGLVQAGGSLRLSCAASGSTFVRYAKGWYRQAPGKETELVAAISYRGGSTYYADSVKGRFTISRDNAKNTVYLQMNSLKPEDTAVYYCAAESRHVEGEYWGQGTQVTVSS,high polyreactivity
16,QVQLVESGGGLVQAGGSLRLSCAASGSTFVRYAMGWDRQAPGTEGSWVAAISVDGDSTYYADSVKGRFTISRDNAKNTVYFQLNSLKPEDTAVYYCNVPLWDYYPRFPLHDYWGQGTQVTVSA,low polyreactivity
17,QVQLVESGGGLVQAGGSLRLSCAASGSTFVRYDMGWYRQAPGKERELVADISWSGVSTYADSVKGRFTISRDNAKNTVYLQMNSLIAEDTAVYYCAKDSDLYQRGGYYWGQGTQVTVSS,low polyreactivity
18,QVQLVESGGGLVQAGGSLRLSCAASGSTFVRYTMGWYRQAPGKERELVAGITGGGSTNYADSVKGRFTISRDNAKNTVYLQMNSLKPEDTAVYYCAADLWWERAYPEYDYWGQGTQVTVSS,low polyreactivity
19,QVQLVESGGGLVQAGGSLRLSCAASGSTFVSNTMGWYRQAPGKERELVAAITWGGGGTYYADSVKGRFTISRDNAKNTVYLQMNSLKPEDTAVYYCAAKVQGGYYDYDYWGQGTQVTVSS,low polyreactivity
20,QVQLVESGGGLVQAGGSLRLSCAASGSTFVSYDMGWYRQAPGKERELVATIRRGGSTYYADSVKGRFTISRDNAKNTVYLQMNSLKPEDTAVYYCAAQQYAKYGWYAYDYWGQGTQVTVSS,low polyreactivity
21,QVQLVESGGGLVQAGGSLRLSCAASGSTFVTNDMGWSRQAPGKERELVAAISSGTSTNYAYSVKGRFTISRDNAKNTVYLQMNSQKPEDTAVYYCAADSLKRYDYWGQGTQVTVSS,low polyreactivity
22,QVQLVESGGGLVQAGGSLRLSCAASGSTFVTYAMGWYRQAPGKERELVAAISSGGGNTYYADSVKGRFTISRDNAKNTVYLQMNSLKPEDSAVYYCAAVNPRSEYDYWGQGTQVTVSS,high polyreactivity

row,Sequence,polyreactivity (PSR sort gate)
1,QVQLVESGGGLVQAGGSLRLSCAASGSTFVTYAMGWYRQAPGKERELVAAISYSGGSTYADSVKGRFTISRDNAKNTVYLQMNSLKPEDTAVYYCNSDTSVDVRFDYWGQGTQVTVSS,low polyreactivity
2,QVQLVESGGGLVQAGGSLRLSCAASGSTFVVNAMGWYRQAPGKERELVAAITQDGDGTYYADSVKGRFTISRDNAKNTVYLQMNSLKPEDTAVYYCAAYPFYGPYDEFDYWGQGTQVTVSS,low polyreactivity
3,QVQLVESGGGLVQAGGSLRLSCAASGSTFVVYAMGWYRQAPGKERELLAAIRANVGGTYYADSVKGRFTISRDNAKNTVYLQMNSLKPEDTAVYYCAAGGYYYNPSFTYGILDYEYCGQGTQVTVSS,low polyreactivity
4,QVQLVESGGGLVQAGGSLRLSCAASGSTFVWYVMGWYRQAPGKEREFVAAISTSGGRTYYADSVKGRFTISRDNAKNTGYLQMNSLKPEDTAVYYCATRPYFTYRWYDYWGQGTQVTVSS,high polyreactivity
5,QVQLVESGGGLVQAGGSLRLSCAASGSTFVYNAMGWDRQAPGKERELVAAITVSDGSTYYADSVKGRFTISRDNAKNTVYLHMKSLKPEDTAVFYCNADFPRKTRYEYWGQGTQVTVSS,low polyreactivity
6,QVQLVESGGGLVQAGGSLRLSCAASGSTFVYNAMGWYRQAPGKERELVAAISWSDGSTYYADSVKGRFTISRDNAKNTVYLELNSLKPEDTAVYYCADEGYYSWDVHDYNYWGQGTQVTVSS,high polyreactivity
7,QVQLVESGGGLVQAGGSLRLSCAASGSTFVYYAKGWYRQAPGKEREFVAAISISTGSTYYADSVKGRFTISRDNAKNTVYLQMNSLKPEDTAVYYCAVDWFLGGYDDLDYWGQGTQVTVSS,low polyreactivity
8,QVQLVESGGGLVQAGGSLRLSCAASGSTFVYYAMGWYRQAPGKERELVARISSTGSTNYADSVKGRFTISRDNAKNTVYLQMHSLKPEDTAVYYCAARGPSPGHGTYTRTRGQSYYYWGQCTQVTVSS,high polyreactivity
9,QVQLVESGGGLVQAGGSLRLSCAASGSTFVYYTMGLYRQAPGKERELVAAISWRGDDTYYSDSVKGRFTISRDNAKNTVYLQMNSLKPEDTAVYYCAGEPVSTYYWTFGDYWGQGYQVTVSS,low polyreactivity
10,QVQLVESGGGLVQAGGSLRLSCAASGSTFVYYVMGWYRQAPGKQRELVAAISTSGGSTYYADSVKGRFTISRDNAKKTVYLQMNSLKPEDTAVYYCAARVYYKYDYWGQGTQVTVSS,low polyreactivity
11,QVQLVESGGGLVQAGGSLRLSCAASGSTFWANAMGWYRPAPGKERELLAGITWNAGSTYYADSVKGRYTISRDNAKNNVYLQLNSLKPEDTAVYYCAAYYHFQGWGPGYNSCGQGTQVTVSS,low polyreactivity
12,QVQLVESGGGLVQAGGSLRLSCAASGSTFWANAMGWYRPAPGKERELVAAISRNGGSTYYADSVKGRFTISRDNAKNTVYLQMNSLKPEDTAVYYCAAKKYYYRRQLDYWGQGTQVTVSS,high polyreactivity
13,QVQLVESGGGLVQAGGSLRLSCAASGSTFWDNAMGWYRQAPGKERELVAAITAIGGTTYYADSVKGRFTISRDNAKNTVYLQMNSLKPEDTAVYYCAADWTTYGFSYFSIYYYWGQGTQVTVSS,low polyreactivity
14,QVQLVESGGGLVQAGGSLRLSCAASGSTFWDYAMGWYRQAHGKERELVAAITDSGGSTYYADSVKGRFTISRDNAKNTVYLQMNSLKPEDTAVYYCAAEAYIWWAWEYEYWGQGPQVTVSS,high polyreactivity
15,QVQLVESGGGLVQAGGSLRLSCAASGSTFWDYAMGWYRQAPGKERELVASISSGGRTYYADSVKGRFTISRDNAKNTVYLQMNSLKPEDTAVYYCARRSWWDYYSWGQGTQVTVSS,high polyreactivity
16,QVQLVESGGGLVQAGGSLRLSCAASGSTFWENSMGWYRQAPGKERELVAAISWGGGSTYYADSVKGRFTISRDNAKNTVYLQMNSLKPEDTAGYYCAADQTSPQFLTSYGGYNYWGQGTQVTVSS,low polyreactivity
17,QVQLVESGGGLVQAGGSLRLSCAASGSTFWEYVMGWYRQAPGKERELVAAITTNDDSTYYADSVKGRFTISRDNAKNTVYLQMNSLKPEDTAVYYFNADQITGQFDYWGQGTQVTVSS,low polyreactivity
18,QVQLVESGGGLVQAGGSLRLSCAASGSTFWFYAMGWYRQAPGKERELVAVISNSGSTYYADSVKGRFTISRDNAKNTVYLQMNSLKPEDTAVYYCAAYAYQYRFSGYGYWGQGTQVTVSS,low polyreactivity
19,QVQLVESGGGLVQAGGSLRLSCAASGSTFWFYPMGRYRQAPGKERELVAVISNSGSTYYADSVKGRFTISRDNAKNTVYLQMNSLKPEDTAVYYCNKDGGGDSYWYDYWGQGTQVTVSS,low polyreactivity
20,QVQLVESGGGLVQAGGSLRLSCAASGSTFWGYAMGWYRQAPGKERELVAAITSGGRTDYADSVKGRFTISRHNAKNTVYLQMNSRKPEDTAVYYCNAYLYYYRYHYNYWGQGTQVTVSS,low polyreactivity
21,QVQLVESGGGLVQAGGSLRLSCAASGSTFWGYAMGWYRQAPGKERELVATINQSAGSTYYADSVKGRFTISRDNAKNTVYLQMNSLKPEDTAVYYCAAEARVQFSYDYWGQGTQVTVSS,low polyreactivity
